From patent publication US20140087995A1 (published 2014)
One block for each binder: values may come before it. Numbered stars: 1 amine (or outer) side, 2 acyl side, 3 side chain; on linkers, the order of the positions; unused ones are H or OH. Bridge positions count the residues as written; N and C are the ends. Side chains are listed from the residue outwards. Ends that are not written are not given here. * marks the point of attachment. C20 diacid = O=C(O)CCCCCCCCCCCCCCCCCCC(=O)*; γGlu = O=C(O)[C@H](CCC(=O)[*:2])N[*:1]; AEEA = NCCOCCOCC(=O)O

How the values were obtained:
rat calcitonin receptor [1] = molecular target: T1, rat calcitonin receptor (rat, UniProt P32214 25-516); assay: ratio of binding IC50s: rat calcitonin receptor over rat amylin receptor (reference)
T1 construct: whole, on cells; also called rCTR; rat calcitonin (a) receptor
T1 sequence (looked up): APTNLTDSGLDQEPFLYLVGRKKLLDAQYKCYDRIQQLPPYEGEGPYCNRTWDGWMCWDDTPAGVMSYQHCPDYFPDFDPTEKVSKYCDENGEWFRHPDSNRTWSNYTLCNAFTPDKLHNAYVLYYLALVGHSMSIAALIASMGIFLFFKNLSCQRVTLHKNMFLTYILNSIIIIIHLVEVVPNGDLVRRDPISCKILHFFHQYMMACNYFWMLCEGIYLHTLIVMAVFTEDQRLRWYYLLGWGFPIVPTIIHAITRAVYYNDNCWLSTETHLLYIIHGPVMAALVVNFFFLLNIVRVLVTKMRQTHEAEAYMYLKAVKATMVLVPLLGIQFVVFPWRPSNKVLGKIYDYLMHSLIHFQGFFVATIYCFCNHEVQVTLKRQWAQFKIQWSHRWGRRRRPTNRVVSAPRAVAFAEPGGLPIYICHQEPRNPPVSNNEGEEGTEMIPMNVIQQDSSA

[2] = molecular target: T2, human calcitonin receptor (human, UniProt P30988 25-474); assay: ratio of binding IC50s: human calcitonin receptor over human amylin receptor (reference)
T2 construct: whole, on cells; also called hCTR; hCT
T2 sequence (looked up): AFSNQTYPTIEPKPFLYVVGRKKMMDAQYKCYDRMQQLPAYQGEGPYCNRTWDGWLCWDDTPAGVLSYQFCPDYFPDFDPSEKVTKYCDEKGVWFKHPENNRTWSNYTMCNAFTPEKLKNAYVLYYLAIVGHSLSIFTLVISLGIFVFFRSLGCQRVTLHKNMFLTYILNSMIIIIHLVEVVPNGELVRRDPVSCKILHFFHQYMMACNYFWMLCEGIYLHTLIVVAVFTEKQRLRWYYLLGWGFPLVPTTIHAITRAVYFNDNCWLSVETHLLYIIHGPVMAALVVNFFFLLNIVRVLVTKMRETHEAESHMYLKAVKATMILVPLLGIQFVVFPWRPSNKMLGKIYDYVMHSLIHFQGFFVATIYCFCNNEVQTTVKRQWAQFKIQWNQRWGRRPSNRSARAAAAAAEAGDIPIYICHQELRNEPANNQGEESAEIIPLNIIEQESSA
Description: The resulting pellet was resuspended, homogenized and centrifuged (20.000 rpm, 15 min) in a buffer containing 20 mM Na-HEPES and 0.1 mM EDTA (pH 7.4, buffer 2). The resulting pellet was resuspended in buffer 2 and protein concentration was measured (BCA protein Assay, Pierce). The homogenate was kept cold during the whole procedure. The membranes were kept at −80° C. until use. The assay was performed in a 384 well Optiplate (PerkinElmer) in a total volume of 40 ul. Membranes were mixed with SPA beads. Final concentration of membranes 35 ng/μL final and SPA beads was 0.05 mg/well. Test-compounds were dissolved in DMSO and further diluted in assay buffer (50 mM Hepes, pH 7.4, 1 mM CaCl2, 5 mM MgCl₂, 0.1% OA and 0.02% Tween20). […] The final mixture was incubated with shaking at 400 rpm for 120 min at 25° C. prior to centrifugation (1500 rpm, 10 min). Samples were analyzed on TopCounter™ (Packard). The IC₅₀ was calculated using (one site binding competition analysis) GraphPad Prism5 as a measure of receptor affinity.
Membranes were prepared in the following way; the cells were rinsed with PBS and incubated with Versene for approximately 5 min before harvesting. The cells were flushed with PBS and the cell-suspension was centrifuged for 5 min at 1000 rpm. Cells were homogenized (Ultrathurrax) in a buffer containing 20 mM Na-HEPES and 10 mM EDTA (pH 7.4) and centrifuged at 20.000 rpm for 15 min. The resulting pellet was resuspended, homogenized and centrifuged (20.000 rpm, 15 min) in a buffer containing 20 mM Na-HEPES and 0.1 mM EDTA (pH 7.4, buffer 2). The resulting pellet was resuspended in buffer 2 and protein concentration was measured (BCA protein Assay, Pierce). The homogenate was kept cold during the whole procedure. The membranes were kept at −80° C. until use. Assay was performed in a 384 well Optiplate (PerkinElmer) in a total volume of 40 ul. Membranes were mixed with SPA beads.

rat calcitonin receptor [3] = molecular target: T1, rat calcitonin receptor; assay: SPA competition with 125I-calcitonin, membranes of BHK cells with rat calcitonin receptor (Assay VIII)
[4] = molecular target: T3, rat amylin receptor (rat calcitonin receptor + rat RAMP 3) (rat, UniProt P32214 25-516; Q9JJ73 23-147); assay: SPA competition with 125I-rat amylin, membranes of BHK cells with rat calcitonin receptor + rat RAMP3 (Assay VI)
T3 construct: whole, on cells; also called rAmylin-R; rat amylin 3(a) receptor
T3 sequence (looked up) 1: T1 sequence (looked up)
T3 sequence (looked up) 2: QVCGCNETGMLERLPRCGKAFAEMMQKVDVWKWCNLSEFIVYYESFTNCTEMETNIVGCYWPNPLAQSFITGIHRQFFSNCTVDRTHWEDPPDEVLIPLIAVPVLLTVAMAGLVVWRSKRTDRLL

- Ratio rCT/rAmylin binding (rat calcitonin receptor [1]): 259
- Ratio hCT/hAmylin binding [2]: 247
- IC50 (rat calcitonin receptor [3]): 221 nM
- IC50 [4]: 0.851 nM
B1: N^ε1-[2-[2-[2-[[(4S)-4-carboxy-4-(19-carboxynonadecanoylamino)butanoyl]amino]ethoxy]ethoxy]acetyl]-[Ala14,Arg17,Pro21,Pro27,Pro31]-h-amylin (peptide)
peptide: K([AEEA-γGlu-C20 diacid])CNTATCATQRLAAFLRHSSPNFGAIPSSTPVGSNTY-NH2
modifications: disulfide 2-7; N-terminus assumed
SMILES: CC[C@H](C)[C@H](NC(=O)[C@H](C)NC(=O)CNC(=O)[C@H](Cc1ccccc1)NC(=O)[C@H](CC(N)=O)NC(=O)[C@@H]1CCCN1C(=O)[C@H](CO)NC(=O)[C@H](CO)NC(=O)[C@H](Cc1c[nH]cn1)NC(=O)[C@H](CCCNC(=N)N)NC(=O)[C@H](CC(C)C)NC(=O)[C@H](Cc1ccccc1)NC(=O)[C@H](C)NC(=O)[C@H](C)NC(=O)[C@H](CC(C)C)NC(=O)[C@H](CCCNC(=N)N)NC(=O)[C@H](CCC(N)=O)NC(=O)[C@@H](NC(=O)[C@H](C)NC(=O)[C@@H]1CSSC[C@H](NC(=O)[C@@H](N)CCCCNC(=O)COCCOCCNC(=O)CC[C@H](NC(=O)CCCCCCCCCCCCCCCCCCC(=O)O)C(=O)O)C(=O)N[C@@H](CC(N)=O)C(=O)N[C@@H]([C@@H](C)O)C(=O)N[C@@H](C)C(=O)N[C@@H]([C@@H](C)O)C(=O)N1)[C@@H](C)O)C(=O)N1CCC[C@H]1C(=O)N[C@@H](CO)C(=O)N[C@@H](CO)C(=O)N[C@H](C(=O)N1CCC[C@H]1C(=O)N[C@H](C(=O)NCC(=O)N[C@@H](CO)C(=O)N[C@@H](CC(N)=O)C(=O)N[C@H](C(=O)N[C@@H](Cc1ccc(O)cc1)C(N)=O)[C@@H](C)O)C(C)C)[C@@H](C)O
notes: synthetic analogue of human amylin; also called compound 72

- Ratio rCT/rAmylin binding (rat calcitonin receptor [1]): 87
- Ratio hCT/hAmylin binding [2]: 140
- IC50 (rat calcitonin receptor [3]): 143 nM
- IC50 [4]: 1.64 nM
B2: N^ε1-[2-[2-[2-[[(4S)-4-carboxy-4-(19-carboxynonadecanoylamino)butanoyl]amino]ethoxy]ethoxy]acetyl]-[Arg14,Arg17,Pro21,Pro27]-h-amylin (peptide)
peptide: K([AEEA-γGlu-C20 diacid])CNTATCATQRLARFLRHSSPNFGAIPSSTNVGSNTY-NH2
modifications: disulfide 2-7; N-terminus assumed
SMILES: CC[C@H](C)[C@H](NC(=O)[C@H](C)NC(=O)CNC(=O)[C@H](Cc1ccccc1)NC(=O)[C@H](CC(N)=O)NC(=O)[C@@H]1CCCN1C(=O)[C@H](CO)NC(=O)[C@H](CO)NC(=O)[C@H](Cc1c[nH]cn1)NC(=O)[C@H](CCCNC(=N)N)NC(=O)[C@H](CC(C)C)NC(=O)[C@H](Cc1ccccc1)NC(=O)[C@H](CCCNC(=N)N)NC(=O)[C@H](C)NC(=O)[C@H](CC(C)C)NC(=O)[C@H](CCCNC(=N)N)NC(=O)[C@H](CCC(N)=O)NC(=O)[C@@H](NC(=O)[C@H](C)NC(=O)[C@@H]1CSSC[C@H](NC(=O)[C@@H](N)CCCCNC(=O)COCCOCCNC(=O)CC[C@H](NC(=O)CCCCCCCCCCCCCCCCCCC(=O)O)C(=O)O)C(=O)N[C@@H](CC(N)=O)C(=O)N[C@@H]([C@@H](C)O)C(=O)N[C@@H](C)C(=O)N[C@@H]([C@@H](C)O)C(=O)N1)[C@@H](C)O)C(=O)N1CCC[C@H]1C(=O)N[C@@H](CO)C(=O)N[C@@H](CO)C(=O)N[C@H](C(=O)N[C@@H](CC(N)=O)C(=O)N[C@H](C(=O)NCC(=O)N[C@@H](CO)C(=O)N[C@@H](CC(N)=O)C(=O)N[C@H](C(=O)N[C@@H](Cc1ccc(O)cc1)C(N)=O)[C@@H](C)O)C(C)C)[C@@H](C)O
notes: synthetic analogue of human amylin; also called compound 82

- Ratio rCT/rAmylin binding (rat calcitonin receptor [1]): 64.7
- Ratio hCT/hAmylin binding [2]: 126
- IC50 (rat calcitonin receptor [3]): 128 nM
- IC50 [4]: 1.97 nM
B3: N^ε1-[2-[2-[2-[[(4S)-4-carboxy-4-(19-carboxynonadecanoylamino)butanoyl]amino]ethoxy]ethoxy]acetyl]-[Arg14,Arg17,Pro21,Pro27,Pro31]-h-amylin (peptide)
peptide: K([AEEA-γGlu-C20 diacid])CNTATCATQRLARFLRHSSPNFGAIPSSTPVGSNTY-NH2
modifications: disulfide 2-7; N-terminus assumed
SMILES: CC[C@H](C)[C@H](NC(=O)[C@H](C)NC(=O)CNC(=O)[C@H](Cc1ccccc1)NC(=O)[C@H](CC(N)=O)NC(=O)[C@@H]1CCCN1C(=O)[C@H](CO)NC(=O)[C@H](CO)NC(=O)[C@H](Cc1c[nH]cn1)NC(=O)[C@H](CCCNC(=N)N)NC(=O)[C@H](CC(C)C)NC(=O)[C@H](Cc1ccccc1)NC(=O)[C@H](CCCNC(=N)N)NC(=O)[C@H](C)NC(=O)[C@H](CC(C)C)NC(=O)[C@H](CCCNC(=N)N)NC(=O)[C@H](CCC(N)=O)NC(=O)[C@@H](NC(=O)[C@H](C)NC(=O)[C@@H]1CSSC[C@H](NC(=O)[C@@H](N)CCCCNC(=O)COCCOCCNC(=O)CC[C@H](NC(=O)CCCCCCCCCCCCCCCCCCC(=O)O)C(=O)O)C(=O)N[C@@H](CC(N)=O)C(=O)N[C@@H]([C@@H](C)O)C(=O)N[C@@H](C)C(=O)N[C@@H]([C@@H](C)O)C(=O)N1)[C@@H](C)O)C(=O)N1CCC[C@H]1C(=O)N[C@@H](CO)C(=O)N[C@@H](CO)C(=O)N[C@H](C(=O)N1CCC[C@H]1C(=O)N[C@H](C(=O)NCC(=O)N[C@@H](CO)C(=O)N[C@@H](CC(N)=O)C(=O)N[C@H](C(=O)N[C@@H](Cc1ccc(O)cc1)C(N)=O)[C@@H](C)O)C(C)C)[C@@H](C)O
notes: synthetic analogue of human amylin; also called compound 64

- Ratio rCT/rAmylin binding (rat calcitonin receptor [1]): 69.9
- Ratio hCT/hAmylin binding [2]: 60.7
- IC50 (rat calcitonin receptor [3]): 90.6 nM
- IC50 [4]: 1.3 nM
B4: N^ε1-[2-[2-[2-[[(4S)-4-carboxy-4-(19-carboxynonadecanoylamino)butanoyl]amino]ethoxy]ethoxy]acetyl]-[Arg17,Pro21,Pro27,Arg34]-h-amylin (peptide)
peptide: K([AEEA-γGlu-C20 diacid])CNTATCATQRLANFLRHSSPNFGAIPSSTNVGRNTY-NH2
modifications: disulfide 2-7; N-terminus assumed
SMILES: CC[C@H](C)[C@H](NC(=O)[C@H](C)NC(=O)CNC(=O)[C@H](Cc1ccccc1)NC(=O)[C@H](CC(N)=O)NC(=O)[C@@H]1CCCN1C(=O)[C@H](CO)NC(=O)[C@H](CO)NC(=O)[C@H](Cc1c[nH]cn1)NC(=O)[C@H](CCCNC(=N)N)NC(=O)[C@H](CC(C)C)NC(=O)[C@H](Cc1ccccc1)NC(=O)[C@H](CC(N)=O)NC(=O)[C@H](C)NC(=O)[C@H](CC(C)C)NC(=O)[C@H](CCCNC(=N)N)NC(=O)[C@H](CCC(N)=O)NC(=O)[C@@H](NC(=O)[C@H](C)NC(=O)[C@@H]1CSSC[C@H](NC(=O)[C@@H](N)CCCCNC(=O)COCCOCCNC(=O)CC[C@H](NC(=O)CCCCCCCCCCCCCCCCCCC(=O)O)C(=O)O)C(=O)N[C@@H](CC(N)=O)C(=O)N[C@@H]([C@@H](C)O)C(=O)N[C@@H](C)C(=O)N[C@@H]([C@@H](C)O)C(=O)N1)[C@@H](C)O)C(=O)N1CCC[C@H]1C(=O)N[C@@H](CO)C(=O)N[C@@H](CO)C(=O)N[C@H](C(=O)N[C@@H](CC(N)=O)C(=O)N[C@H](C(=O)NCC(=O)N[C@@H](CCCNC(=N)N)C(=O)N[C@@H](CC(N)=O)C(=O)N[C@H](C(=O)N[C@@H](Cc1ccc(O)cc1)C(N)=O)[C@@H](C)O)C(C)C)[C@@H](C)O
notes: synthetic analogue of human amylin; also called compound 78
